Measured values: US20230407327A1, “INDUCIBLE PROMOTER FOR VIRAL VECTOR PRODUCTION” (ASKLEPIOS BIOPHARMACEUTICAL, INC., priority 2020, published 2023)

B1: Synp-RTV-019: synthetic forskolin-inducible promoter, SEQ ID NO: 5; 3×ATF6, 4× AP1 and 3× HIF TFBS and a CMV-MP (nucleic acid)
DNA: TGACGTGCTGATGATGCGTAGCTAGTAGTTGACGTGCTGATGATGCGTAGCTAGTAGTTGACGTGCTGATGATGCGTAGCTAGTAGTTGAGTCAGATGATGCGTAGCTAGTAGTTGAGTCAGATGATGCGTAGCTAGTAGTTGAGTCAGATGATGCGTAGCTAGTAGTTGAGTCAGATGATGCGTAGCTAGTAGTCTGCACGTAGATGATGCGTAGCTAGTAGTCTGCACGTAGATGATGCGTAGCTAGTAGTCTGCACGTAGATGATGCGTAGCTAGTAGTGCAGTTAGCGTAGCTGAGGTACCGTCGACGATATCGGATCCAGGTCTATATAAGCAGAGCTCGTTTAGTGAACCGTCAGATCGCCTAGATACGCCATCCACGCTGTTTTGACCTCCATAGAAGATCGCCACC
B2: Synp-FORCYB1: synthetic forskolin-inducible promoter, SEQ ID NO: 6; 5× cAMPRE and 4× AP1 TFBS and YB-TATA-MP (nucleic acid)
DNA: TGACGTCACGATTACCATTGACGTCACGATTACCATTGACGTCACGATTACCATTGACGTCACGATTACCATTGACGTCAGCGATTAAGATGACTCAGCGATTAAGATGACTCAGCGATTAAGATGACTCAGCGATTAAGATGACTCAGCGATTAATCCATATGCTCTAGAGGGTATATAATGGGGGCCACTAGTCTACTACCAGAAAGCTTGGTACCGAGCTCGGATCCAGCCACC
B3: Synp-RTV-016: synthetic hypoxia-inducible promoter, SEQ ID NO: 1; 6 HRE2 and CMV minimal promoter (nucleic acid)
DNA: CTGCACGTAGATGATGCGTAGCTAGTAGTCTGCACGTAGATGATGCGTAGCTAGTAGTCTGCACGTAGATGATGCGTAGCTAGTAGTCTGCACGTAGATGATGCGTAGCTAGTAGTCTGCACGTAGATGATGCGTAGCTAGTAGTCTGCACGTAGTAGTCGTATGCTGATGCGCAGTTAGCGTAGCTGAGGTACCGTCGACGATATCGGATCCAGGTCTATATAAGCAGAGCTCGTTTAGTGAACCGTCAGATCGCCTAGATACGCCATCCACGCTGTTTTGACCTCCATAGAAGATCGCCACC
B4: Synp-HV3C: synthetic hypoxia-inducible promoter, SEQ ID NO: 3; 4 HRE3 and CMV minimal promoter (nucleic acid)
DNA: ACCTTGAGTACGTGCGTCTCTGCACGTATGGCGATTAAGACCTTGAGTACGTGCGTCTCTGCACGTATGGCGATTAAGACCTTGAGTACGTGCGTCTCTGCACGTATGGCGATTAAGACCTTGAGTACGTGCGTCTCTGCACGTATGGCGATTAATCCATATGCAGGTCTATATAAGCAGAGCTCGTTTAGTGAACCGTCAGATCGCCTAGATACGCCATCCACGCTGTTTTGACCTCCATAGAAGATCGCCACC
B5: Synp-RTV-017: synthetic forskolin-inducible promoter, SEQ ID NO: 4; 8× AP1 TFBS and a CMV-MP (nucleic acid)
DNA: TGAGTCAGATGATGCGTAGCTAGTAGTTGAGTCAGATGATGCGTAGCTAGTAGTTGAGTCAGATGATGCGTAGCTAGTAGTTGAGTCAGATGATGCGTAGCTAGTAGTTGAGTCAGATGATGCGTAGCTAGTAGTTGAGTCAGATGATGCGTAGCTAGTAGTTGAGTCAGATGATGCGTAGCTAGTAGTTGAGTCAGTAGTCGTATGCTGATGCGCAGTTAGCGTAGCTGAGGTACCGTCGACGATATCGGATCCAGGTCTATATAAGCAGAGCTCGTTTAGTGAACCGTCAGATCGCCTAGATACGCCATCCACGCTGTTTTGACCTCCATAGAAGATCGCCACC
B6: Synp-HYBT: synthetic hypoxia-inducible promoter, SEQ ID NO: 2; 4 HRE3 and a YB-TATA minimal promoter (nucleic acid)
DNA: ACCTTGAGTACGTGCGTCTCTGCACGTATGGCGATTAAGACCTTGAGTACGTGCGTCTCTGCACGTATGGCGATTAAGACCTTGAGTACGTGCGTCTCTGCACGTATGGCGATTAAGACCTTGAGTACGTGCGTCTCTGCACGTATGGCGATTAATCCATATGCTCTAGAGGGTATATAATGGGGGCCA

Tests used:
Huh7 (liver) = test: Luciferase expression from forskolin-inducible promoters in Huh7 cells; format: cell-based, human; details: for luciferase activity after induction, promoter expressed from an AAV vector: 20 μM forskolin or 7.2 μM NKH477; for luciferase activity after induction, promoter expressed from an AAV vector / luciferase activity without induction, promoter expressed from an AAV vector: FIG. 8; for luciferase activity after induction: 20 μM forskolin; for luciferase activity after induction / luciferase activity without induction: FIG. 6; for luciferase activity without induction, promoter expressed from an AAV vector: AAV vector containing ITRs
Method: Luciferase activity was measured without induction and after induction with 20 μM forskolin or 7.2 μM NKH477.

C2C12 (muscle) cells = test: Luciferase expression from forskolin-inducible promoter in C2C12 cells; format: cell-based, mouse; details: FIG. 7
From the text: CMV-IE expression was not analyzed under induced conditions, and thus no result is shown in the graph.

HEK293-F cells = test: Luciferase expression from hypoxia-inducible promoters in transiently transfected HEK293-F cells; format: cell-based, human; details: cells placed in hypoxia at 0 hours; FIG. 3
Method: 40 ml of cells are grown in a 250 ml vented Erlenmeyer flask (Sigma-Aldrich CLS431144) at 37° C., 20% O2, 8% CO2 with agitation at 100 rpm. Cells are seeded as described in the manufacturer's instructions (300,000 cells/ml). HEK293-F are obtained from Thermofisher, R79007.
One day before transfection, the cells are counted using a haemocytometer and split to 500,000 cells/ml.
On the day of transfection, the cells are seeded to 1,000,000 cells/ml in 500 µl of appropriate medium (Freestyle 293 expression medium, 12338002) in a 24 well plate. […] of DNA per well is then added to 10 μl of OptiMem medium (Thermofisher; 11058021) and incubated for 5 minutes at room temperature.
Concurrently, 0.625 μl of Max reagent (Thermofisher, 16447100) is made up to […] by addition of OptiMem and incubated for 5 minutes at room temperature. After this incubation, both mixes are added to the same tube and incubated at room temperature for 25-30 minutes. The DNA/Max reagent mix (20 μl/well) is then added directly to the cells and the cells incubated at 37° C., 8% CO2 with agitation at 100 rpm. […]
After transfection the cells are incubated for 24 hrs in normoxia conditions (20% oxygen) before being switched to a gas mix of 5% oxygen, 10% carbon dioxide and 85% nitrogen (hypoxia). […] Induction of the promoters is assessed by using luciferase activity after 3, 5 and 24 hrs in hypoxia.
(§1) Luciferase activity is measured using LARII (Dual Luciferase Reporter 1000 assay system, Promega, E1980).
Media is removed from the cells at the respective time point (0, 3, 5, 24 hrs after induction). […] 10 μl of supernatant is pipetted into white 96-well plate and luminescence measured by addition of 50 μl of LARII substrate.
β-galactosidase activity is measured as per manufacturer's instructions (Mammalian PGalactosidase Assay Kit, 75707/75710, Thermo Scientific) using 25 µl of lysate. […] The mixture is incubated at 37° C. for 30 min and absorbance measured at 405 nm.
(§2) Luciferase readouts are normalised to β-galactosidase to produce normalised relative luminometer units (RLUs).

HEK293-T cells = test: Luciferase expression from hypoxia-inducible promoters in transiently transfected HEK293-T cells; format: cell-based, human; details: for luciferase activity in normoxia: normoxic conditions, FIG. 4
Method: HEK293-T are seeded at a density of 20%. Once they reached a confluence between 60 and 80%, the media is changed with DMEM (#21885-025—Thermo Scientific) supplemented with 10% FBS (Gibco, 26140). After 3 hours, the cells are transfected by a transfection mix. The transfection mix is prepared by adding DNA (2 μg per 6 well plate) and PEI 25 kDA (#23966-1—Polyscience) in a ratio of 1:3 in sterile DPBS (#14190169—ThermoFisher Scientific). After mixing, the transfection mix is incubated at room temperature for 30 minutes and then added directly to the cells. After 16 to 18 h post transfection, the media is changed to DMEM+2% FBS. The transfected DNA is one of the vectors where the promoter construct (Synp-RTV-016, Synp-HYBT and Synp-HV3C) or a control promoter (CMV-IE) are used to drive luciferase expression and P-galactosidase containing pcDNA6 plasmid. The β-galactosidase containing plasmid is used as internal control for transfection efficiency (Thermofisher, V22020).
After transfection the cells are incubated for 24 hrs in normoxic conditions (20% oxygen). Induction of the promoters is assessed by using luciferase activity after 24 hrs in normoxia or hypoxia (5% oxygen, 10% carbon dioxide and 85% nitrogen). Hypoxia is achieved by gas displacement in a sealed hypoxia chamber.
as §1
Media is removed from the cells at the respective time point (0, 3, 5, 24 hrs after induction). The cells are washed once in 300 μl of DPBS. Cells are lysed by adding 100 μl of passive lysis buffer to the cells and incubation with rocking for 15 minutes. The cell debris is pelleted by centrifugation of the plate at max speed in a benchtop centrifuge for 1 min. 10 μl of supernatant is pipetted into white 96-well plate and luminescence measured by addition of 50 μl of LARII substrate.
β-galactosidase activity is measured as per manufacturer's instructions (Mammalian PGalactosidase Assay Kit, 75707/75710, Thermo Scientific) using 25 µl of lysate. 25 μl of lysate is transferred into a microplate well and mixed with 25 μl of β-galactosidase Assay Reagent, equilibrated to room temperature. The mixture is incubated at 37° C. for 30 min and absorbance measured at 405 nm.
as §2

Molecule | luciferase activity after induction, promoter expressed from an AAV vector (Huh7 (liver)) | luciferase activity after induction (Huh7 (liver)) | luciferase activity without induction, promoter expressed from an AAV vector (Huh7 (liver)) | luciferase activity without induction (Huh7 (liver)) | luciferase activity after induction (C2C12 (muscle) cells; 20 μM forskolin) | luciferase activity without induction (C2C12 (muscle) cells) | luciferase activity over time in hypoxia (HEK293-F cells) | luciferase expression / inducibility after 24 hours in hypoxia versus normoxia (HEK293-T cells) | luciferase activity in normoxia (HEK293-T cells)
B1 | high activity | high activity | low background activity | low background activity | high activity | low background activity | – | – | –
B2 | high activity | – | low background activity | – | – | – | – | – | –
B3 | – | – | – | – | – | – | increase in luciferase activity with time | lowest | almost no luciferase activity
B4 | – | – | – | – | – | – | increase in luciferase activity with time | highest | almost no luciferase activity
B5 | high activity | high activity | low background activity | low background activity | – | – | – | – | –
B6 | – | – | – | – | – | – | increase in luciferase activity with time | induced to a varying level | almost no luciferase activity
